Experimental data published in paper doi:10.1101/2021.10.06.463400.

Molecular target: actin (skeletal muscle thin filament) (mouse (endogenous in psoas myofibrils)) (UniProt P68134)
Assay: cryo-EM structure

stoichiometry, nebulin simple repeat to actin subunit: 1
Substance: nebulin (from UniProt E9Q1W3 1-7152) (natural protein)
